Data from US20170281716.

Experiments:
[1] = molecular target: T1, biotin-FLF-CMK
T1 chain: FLF

[2] = molecular target: T2, DEVD-modified IL-36β, full length unprocessed
T2 sequence (Q9NZH7 whole entry, species assumed, looked up): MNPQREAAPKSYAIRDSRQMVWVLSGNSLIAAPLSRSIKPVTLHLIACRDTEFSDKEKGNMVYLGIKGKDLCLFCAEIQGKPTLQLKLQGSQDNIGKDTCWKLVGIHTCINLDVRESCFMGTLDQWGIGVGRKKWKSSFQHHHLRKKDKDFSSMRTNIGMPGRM

[3] = molecular target: T3, DEVD-modified IL-36γ, full length
T3 sequence (Q9NZH8 whole entry, species assumed, looked up): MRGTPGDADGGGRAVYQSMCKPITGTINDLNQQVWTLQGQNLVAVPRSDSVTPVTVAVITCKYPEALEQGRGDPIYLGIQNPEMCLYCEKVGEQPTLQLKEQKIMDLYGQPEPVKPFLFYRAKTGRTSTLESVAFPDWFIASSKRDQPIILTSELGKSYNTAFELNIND

[4] = molecular target: T4, Full-length poly-histidine-tagged human IL-36β
T4 chain: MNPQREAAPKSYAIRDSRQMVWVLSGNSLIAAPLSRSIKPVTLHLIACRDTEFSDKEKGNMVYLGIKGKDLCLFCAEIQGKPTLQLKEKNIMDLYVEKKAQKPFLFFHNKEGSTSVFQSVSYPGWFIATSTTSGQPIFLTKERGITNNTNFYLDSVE

[5] = molecular target: T5, endogenous IL-36γ
T5 chain: T3 sequence (Q9NZH8 whole entry, species assumed, looked up)

B1: Purified Neutrophil-derived Cathepsin G (protein)
chain: IIGGRESRPHSRPYMAYLQIQSPAGQSRCGGFLVREDFVLTAAHCWGSNINVTLGAHNIQRRENTQQHITARRAIRHPQYNQRTIQNDIMLLQLSRRVRRNRNVNPVALPRAQEGLRPGTLCTVAGWGRVSMRRGTDTLREVQLRVQRDRQCLRIFGSYDPRRQICVGDRRERKAAFKGDSGGPLLCNNVAHGIVSYGKSSGVPPEVFTRVSSFLPWIRTTMRS
- depletion of cathepsin G activity from degranulates with streptavidin agarose (FLF-sBzl hydrolysis; IL-36β bioassay) [1]: selective depletion of cathepsin G activity from PMA-treated neutrophil degranulates using biotin-FLF-CMK largely eliminated activation of IL-36b but not of IL-36g

B2: Recombinant poly-histidine-tagged caspase-3 (protein)
chain: SGISLDNSYKMDYPEMGLCIIINNKNFHKSTGMTSRSGTDVDAANLRETFRNLKYEVRNKNDLTREEIVELMRDVSKEDHSKRSSFVCVLLSHGEEGIIFGTNGPVDLKKITNFFRGDRCRSLTGKPKLFIIQACRGTELDCGIETDSGVDDDMACHKIPVEADFLYAYSTAPGYYSWRNSKDGSWFIQSLCAMLKQYADKLEFMHILTRVNRKVATEFESFSFDATFHAKKQIPCIVSMLTKELYFYH
- proteolytic processing, immunoblot [2]: DEVD-modified IL-36β (IL-36b^DEVD) and DEVD-modified IL-36γ (IL-36g^DEVD) was readily processed by caspase-3
- proteolytic processing, immunoblot [3]: DEVD-modified IL-36β (IL-36b^DEVD) and DEVD-modified IL-36γ (IL-36g^DEVD) was readily processed by caspase-3

B3: purified cathepsin K (protein)
chain: APDSVDYRKKGYVTPVKNQGQCGSCWAFSSVGALEGQLKKKTGKLLNLSPQNLVDCVSENDGCGGGYMTNAFQYVQKNRGIDSEDAYPYVGQEESCMYNPTGKAAKCRGYREIPEGNEKALKRAVARVGPVSVAIDASLTSFQFYSKGVYYDESCNSDNLNHAVLAVGYGIQKGNKHWIIKNSWGENWGNKGYILMARNKNNACGIANLASFPKM
- cleavage and activation of IL-36β [4]: cathepsin K, a protease predominantly expressed in osteoclasts, can cleave and activate IL-36β (beta) at the same residue as Cathepsin G (NPQR5 EAAP)

B4: Purified Neutrophil-derived Elastase (protein)
chain: IVGGRRARPHAWPFMVSLQLRGGHFCGATLIAPNFVMSAAHCVANVNVRAVRVVLGAHNLSRREPTRQVFAVQRIFENGYDPVNLLNDIVILQLNGSATINANVQVAQLPAQGRRLGNGVQCLAMGWGLLGRNRGIASVLQELNVTVVTSLCRRSNVCTLVRGRQAGVCFGDSGSPLVCNGLIHGIASFVRGGCASGLYPDAFAPVAQFVNWIDSIIQ
- proteolysis of endogenous IL-36γ from keratinocyte extracts and supernatants, immunoblot [5]: IL-36γ incubated with elastase resulted in robust IL-36γ proteolysis both intracellularly as well as extracellularly
- proteolysis of endogenous IL-36γ in psoriatic skin homogenates, immunoblot [5]: incubating these psoriatic homogenates with neutrophil elastase resulted in IL-36γ proteolysis
